Assay results published in patent US20110052582A1 (Hoffmann-La Roche, published 2011).
Substitutions are numbered along the chain they refer to.

Biological target: T1, Soluble CDCP1 extracellular domain (CDCP1-ECD) (SEQ ID NO:30) fused to Streptavidin Binding Protein (SBP) (human, UniProt Q9H5V8 30-663)
T1 construct: also called SBP-CDCP1-ECD
T1 sequence: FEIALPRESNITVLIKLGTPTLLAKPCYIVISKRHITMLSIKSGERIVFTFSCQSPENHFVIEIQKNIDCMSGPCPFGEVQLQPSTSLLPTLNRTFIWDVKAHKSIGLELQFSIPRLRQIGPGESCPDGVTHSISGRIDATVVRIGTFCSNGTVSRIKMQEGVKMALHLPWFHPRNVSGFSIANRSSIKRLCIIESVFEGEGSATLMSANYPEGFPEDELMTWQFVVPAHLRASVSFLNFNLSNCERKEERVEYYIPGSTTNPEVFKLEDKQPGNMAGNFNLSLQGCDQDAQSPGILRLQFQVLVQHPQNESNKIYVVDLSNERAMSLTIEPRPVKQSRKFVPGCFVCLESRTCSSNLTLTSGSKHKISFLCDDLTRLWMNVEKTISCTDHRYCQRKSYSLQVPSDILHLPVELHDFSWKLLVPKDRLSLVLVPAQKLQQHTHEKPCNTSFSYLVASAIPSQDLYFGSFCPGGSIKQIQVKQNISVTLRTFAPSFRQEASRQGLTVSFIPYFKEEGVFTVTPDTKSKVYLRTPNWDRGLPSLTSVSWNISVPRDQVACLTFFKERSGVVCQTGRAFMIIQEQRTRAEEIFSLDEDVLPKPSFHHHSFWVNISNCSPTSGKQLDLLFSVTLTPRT
Assay: ELISA on captured SBP-CDCP1-ECD, ratio relative to chimeric CUB4 (chHC4)
In short: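 Streptavidin plates coated overnight at 2–8° C with SBP-CDCP1-ECD HEK293 supernatant (1:15–1:40). Antibodies, undiluted or 12-step dilution, bound 90 min at room temperature; HRP anti-human IgG 1 h, ABTS read at 405/492 nm, signal expressed relative to chimeric chHC4 reference.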

B1: hHC4-H / hLC4-L (antibody, V domains shown)
VH: EVQLVESGGGLVQPGGSLRLSCAASGFTFNSYGMSWVRQAPGKGLEWVATISSGGSYKYYVDSVKGRFTISRDNAKNSLYLQMNSLRAEDTAVYYCARHPDYDGVWFAYWGQGTLVTVSS
VL: EIVLTQSPATLSLSPGERATMSCRASSSVFYLHWYQQKPGQAPRLWIYDTSKLASGIPARFSGSGSGTDFTLTISSLEPEDFAVYYCQQWNSNPPTFGGGTKVEIK
notes: also called Humanized CUB4 Antibody No. 58
How did the relative binding ratio turn out when B1 was run?
Its relative binding ratio is 0.44.

B2: hHC4-I / hLC4-I (antibody, V domains shown)
VH: B1 VH with V5L, G33A, A49S, T50A, K58T, V61A, A75S, S78T, R98K
VL: B1 VL with L4M, M21L, H33S, E78Q
Does B2 bind?
Result: no binding

B3: hHC4-I / hLC4-J (antibody, V domains shown)
VH: B1 VH with V5L, G33A, A49S, T50A, K58T, V61A, A75S, S78T, R98K
VL: B1 VL with L4M, E78Q
With B3 as the binder, how does the relative binding ratio read?
The relative binding ratio was 0.11.

B4: hHC4-I / hLC4-L (antibody, V domains shown)
VH: B1 VH with V5L, G33A, A49S, T50A, K58T, V61A, A75S, S78T, R98K
VL: B1 VL
Which relative binding ratio does the source give for B4 here?
The relative binding ratio was 0.11.

B5: hHC4-I / hLC4-L2 (antibody, V domains shown)
VH: B1 VH with V5L, G33A, A49S, T50A, K58T, V61A, A75S, S78T, R98K
VL: B1 VL with R24S, A25V
Which relative binding ratio does the source give for B5 here?
The relative binding ratio was 0.21.

B6: hHC4-K2 / hLC4-I (antibody, V domains shown)
VH: B1 VH with Q13K, A49S, T50S, K58T, V61A
VL: B1 VL with L4M, M21L, H33S, E78Q
Does B6 bind?
Result: no binding

B7: hHC4-K2 / hLC4-K (antibody, V domains shown)
VH: B1 VH with Q13K, A49S, T50S, K58T, V61A
VL: B1 VL with M21L
Which relative binding ratio does the source give for B7 here?
Its relative binding ratio is 0.3.

B8: hHC4-K2 / hLC4-L (antibody, V domains shown)
VH: B1 VH with Q13K, A49S, T50S, K58T, V61A
VL: B1 VL
B8 was tested. Which relative binding ratio did it give?
Its relative binding ratio is 0.21.

B9: hHC4-K2 / hLC4-L2 (antibody, V domains shown)
VH: B1 VH with Q13K, A49S, T50S, K58T, V61A
VL: B1 VL with R24S, A25V
For B9, which relative binding ratio is on record?
The relative binding ratio was 0.2.

B10: hHC4-K2 / hLC4-M (antibody, V domains shown)
VH: B1 VH with Q13K, A49S, T50S, K58T, V61A
VL: B1 VL with R24G, Q41L, A59D, S76R
B10 was tested. Which relative binding ratio did it give?
The relative binding ratio was 0.28.

B11: hHC4-K2 / hLC4-a (antibody, V domains shown)
VH: B1 VH with Q13K, A49S, T50S, K58T, V61A
VL: B1 VL with M21L, R24S, A25V, L32V, W46L
How did the relative binding ratio turn out when B11 was run?
Its relative binding ratio is 0.1.

B12: hHC4-K2 / hLC4-b (antibody, V domains shown)
VH: B1 VH with Q13K, A49S, T50S, K58T, V61A
VL: B1 VL with M21L, R24S, A25V, L32V, W46L, F70Y
How did the relative binding ratio turn out when B12 was run?
Its relative binding ratio is 0.12.

B13: hHC4-K / hLC4-I (antibody, V domains shown)
VH: B1 VH with Q13K, A49S, T50S, K58I, V61A
VL: B1 VL with L4M, M21L, H33S, E78Q
Does B13 bind?
Result: no binding

B14: hHC4-K / hLC4-J (antibody, V domains shown)
VH: B1 VH with Q13K, A49S, T50S, K58I, V61A
VL: B1 VL with L4M, E78Q
How did the relative binding ratio turn out when B14 was run?
The relative binding ratio was 0.01.

B15: hHC4-K / hLC4-L (antibody, V domains shown)
VH: B1 VH with Q13K, A49S, T50S, K58I, V61A
VL: B1 VL
With B15 as the binder, how does the relative binding ratio read?
Its relative binding ratio is 0.02.

B16: hHC4-K / hLC4-M (antibody, V domains shown)
VH: B1 VH with Q13K, A49S, T50S, K58I, V61A
VL: B1 VL with R24G, Q41L, A59D, S76R
With B16 as the binder, how does the relative binding ratio read?
Its relative binding ratio is 0.04.

B17: hHC4-K / hLC4-a (antibody, V domains shown)
VH: B1 VH with Q13K, A49S, T50S, K58I, V61A
VL: B1 VL with M21L, R24S, A25V, L32V, W46L
Does B17 bind?
Result: no binding

B18: hHC4-K / hLC4-b (antibody, V domains shown)
VH: B1 VH with Q13K, A49S, T50S, K58I, V61A
VL: B1 VL with M21L, R24S, A25V, L32V, W46L, F70Y
Does B18 bind?
Result: no binding

B19: hHC4-K / hLC4-c (antibody, V domains shown)
VH: B1 VH with Q13K, A49S, T50S, K58I, V61A
VL: B1 VL with L4M, L13V, M21L, R24S, A25V, L32V, W46L, D69E, E78Q, P79S
Does B19 bind?
Result: no binding

B20: hHC4-a / hLC4-I (antibody, V domains shown)
VH: B1 VH with Q13K, A49S, K58T, V61P
VL: B1 VL with L4M, M21L, H33S, E78Q
Does B20 bind?
Result: no binding

B21: hHC4-a / hLC4-L (antibody, V domains shown)
VH: B1 VH with Q13K, A49S, K58T, V61P
VL: B1 VL
Which relative binding ratio does the source give for B21 here?
The relative binding ratio was 0.55.

B22: hHC4-a / hLC4-L2 (antibody, V domains shown)
VH: B1 VH with Q13K, A49S, K58T, V61P
VL: B1 VL with R24S, A25V
Which relative binding ratio does the source give for B22 here?
The relative binding ratio was 0.58.

B23: hHC4-a / hLC4-M (antibody, V domains shown)
VH: B1 VH with Q13K, A49S, K58T, V61P
VL: B1 VL with R24G, Q41L, A59D, S76R
With B23 as the binder, how does the relative binding ratio read?
The relative binding ratio was 0.8.

B24: hHC4-a / hLC4-a (antibody, V domains shown)
VH: B1 VH with Q13K, A49S, K58T, V61P
VL: B1 VL with M21L, R24S, A25V, L32V, W46L
With B24 as the binder, how does the relative binding ratio read?
Its relative binding ratio is 0.38.

B25: hHC4-a / hLC4-b (antibody, V domains shown)
VH: B1 VH with Q13K, A49S, K58T, V61P
VL: B1 VL with M21L, R24S, A25V, L32V, W46L, F70Y
With B25 as the binder, how does the relative binding ratio read?
The relative binding ratio was 0.36.

B26: hHC4-a / hLC4-c (antibody, V domains shown)
VH: B1 VH with Q13K, A49S, K58T, V61P
VL: B1 VL with L4M, L13V, M21L, R24S, A25V, L32V, W46L, D69E, E78Q, P79S
With B26 as the binder, how does the relative binding ratio read?
The relative binding ratio was 0.35.

B27: hHC4-a / hLC4-d (antibody, V domains shown)
VH: B1 VH with Q13K, A49S, K58T, V61P
VL: EIVMTQSPATLSVSPGERATLSCSVSSSVFYVHWYQQKPGQAPRLLIYDTSKLASGIPARFSGSGSGTEYTLTISSLQSEDFAVYYCQQWNSNPPTFGGGTKVEIK
B27 was tested. Which relative binding ratio did it give?
The relative binding ratio was 0.28.

B28: hHC4-b / hLC4-I (antibody, V domains shown)
VH: B1 VH with Q13K, G33S, S35N, A49S, T50S, K58I, V61A
VL: B1 VL with L4M, M21L, H33S, E78Q
Does B28 bind?
Result: no binding

B29: hHC4-b / hLC4-J (antibody, V domains shown)
VH: B1 VH with Q13K, G33S, S35N, A49S, T50S, K58I, V61A
VL: B1 VL with L4M, E78Q
Does B29 bind?
Result: no binding

B30: hHC4-b / hLC4-K (antibody, V domains shown)
VH: B1 VH with Q13K, G33S, S35N, A49S, T50S, K58I, V61A
VL: B1 VL with M21L
Does B30 bind?
Result: no binding

B31: hHC4-b / hLC4-L (antibody, V domains shown)
VH: B1 VH with Q13K, G33S, S35N, A49S, T50S, K58I, V61A
VL: B1 VL
Does B31 bind?
Result: no binding

B32: hHC4-b / hLC4-L2 (antibody, V domains shown)
VH: B1 VH with Q13K, G33S, S35N, A49S, T50S, K58I, V61A
VL: B1 VL with R24S, A25V
Does B32 bind?
Result: no binding

B33: hHC4-b / hLC4-M (antibody, V domains shown)
VH: B1 VH with Q13K, G33S, S35N, A49S, T50S, K58I, V61A
VL: B1 VL with R24G, Q41L, A59D, S76R
Does B33 bind?
Result: no binding

B34: hHC4-b / hLC4-a (antibody, V domains shown)
VH: B1 VH with Q13K, G33S, S35N, A49S, T50S, K58I, V61A
VL: B1 VL with M21L, R24S, A25V, L32V, W46L
Does B34 bind?
Result: no binding

B35: hHC4-b / hLC4-b (antibody, V domains shown)
VH: B1 VH with Q13K, G33S, S35N, A49S, T50S, K58I, V61A
VL: B27 VL with M4L, V13L, E69D, Q78E, S79P
Does B35 bind?
Result: no binding

B36: hHC4-c / hLC4-I (antibody, V domains shown)
VH: B1 VH with K58T, V61P
VL: B1 VL with L4M, M21L, H33S, E78Q
Does B36 bind?
Result: no binding

B37: hHC4-c / hLC4-J (antibody, V domains shown)
VH: B1 VH with K58T, V61P
VL: B1 VL with L4M, E78Q
How did the relative binding ratio turn out when B37 was run?
Its relative binding ratio is 0.42.

B38: hHC4-c / hLC4-K (antibody, V domains shown)
VH: B1 VH with K58T, V61P
VL: B1 VL with M21L
With B38 as the binder, how does the relative binding ratio read?
The relative binding ratio was 0.83.

B39: hHC4-c / hLC4-L (antibody, V domains shown)
VH: B1 VH with K58T, V61P
VL: B1 VL
How did the relative binding ratio turn out when B39 was run?
The relative binding ratio was 0.45.

B40: hHC4-c / hLC4-L2 (antibody, V domains shown)
VH: B1 VH with K58T, V61P
VL: B1 VL with R24S, A25V
With B40 as the binder, how does the relative binding ratio read?
The relative binding ratio was 0.53.
